Tested on: HIV-1 Tat Tat-1 delta1-47 (Human immunodeficiency virus 1 (HXB2))
Experiment: EMSA
Details: truncated Tat-1 (construct assumed delta1-47)

HIV-2 TAR-2 RNA wt (+1 to +123)
binding signal (fold higher affinity than for TAR-1): 4

Reference: patent US6284456
